Results on 1 substance are retold here after article PMC5561218.

Assay [1] has as its target fibrinogen related-protein 30 (FBN30), insect cell-expressed recombinant (Anopheles gambiae). As to the kind of experiment: non-reducing and reducing SDS-PAGE with western blot; 12% SDS-PAGE without or with beta-ME of culture medium of transfected Hi5 cells; FBN30 detected with anti-FBN30 antibody; covalent (disulfide) dimer.
Assay [2] has the same target. Briefly: SEC; concentrated Hi5 medium on a Superdex 200 10/300 GL column, PBS pH 7.4, 0.4 mL/min, calibrated with protein standards; FBN30 in the fractions quantified by ELISA with anti-FBN30; octamer of four disulfide-linked homodimers.

As usually defined, the stoichiometry N is a count of units in the complex or per binding partner.

For the substance “fibrinogen related-protein 30 (FBN30), insect cell-expressed recombinant (natural protein)”, the stoichiometry N in assay [1] was found to be 2; in assay [2] it was 8.
